Results on seven molecules are retold here after patent US20110014669A1, “Production of 1,4 Butanediol in a Microorganism” (Microbia, Inc., priority 2009, published 2011).

First the molecules themselves.
B1: ARO10Sc: Enzyme candidate for BDO biosynthetic pathway step A5, SEQ ID NO. 70 (protein, listed as Saccharomyces cerevisiae)
chain: MAPVTIEKFVNQEERHLVSNRSATIPFGEYIFKRLLSIDTKSVFGVPGDFNLSLLEYLYSPSVESAGLRWVGTCNELNAAYAADGYSRYSNKIGCLITTYGVGELSALNGIAGSFAENVKVLHIVGVAKSIDSRSSNFSDRNLHHLVPQLHDSNFKGPNHKVYHDMVKDRVACSVAYLEDIETACDQVDNVIRDIYKYSKPGYIFVPADFADMSVTCDNLVNVPRISQQDCIVYPSENQLSDIINKITSWIYSSKTPAILGDVLTDRYGVSNFLNKLICKTGIWNFSTVMGKSVIDESNPTYMGQYNGKEGLKQVYEHFELCDLVLHFGVDINEINNGHYTFTYKPNAKIIQFHPNYIRLVDTRQGNEQMFKGINFAPILKELYKRIDVSKLSLQYDSNVTQYTNETMRLEDPTNGQSSIITQVHLQKTMPKFLNPGDVVVCETGSFQFSVRDFAFPSQLKYISQGFFLSIGMALPAALGVGIAMQDHSNAHINGGNVKEDYKPRLILFEGDGAAQMTIQELSTILKCNIPLEVIIWNNNGYTIERAIMGPTRSYNDVMSWKWTKLFEAFGDFDGKYTNSTLIQCPSKLALKLEELKNSNKRSGIELLEVKLGELDFPEQLKCMVEAAALKRNKK
B2: LysAEc: Enzyme candidate for BDO biosynthetic pathway step A5, SEQ ID NO. 66 (protein, listed as Escherichia coli)
chain: MPHSLFSTDTDLTAENLLRLPAEFGCPVWVYDAQIIRRQIAALKQFDVVRFAQKACSNIHILRLMREQGVKVDSVSLGEIERALAAGYNPQTHPDDIVFTADVIDQATLERVSELQIPVNAGSVDMLDQLGQVSPGHRVWLRVNPGFGHGHSQKTNTGGENSKHGIWYTDLPAALDVIQRHHLQLVGIHMHIGSGVDYAHLEQVCGAMVRQVIEFGQDLQAISAGGGLSVPYQQGEEAVDTEHYYGLWNAAREQIARHLGHPVKLEIEPGRFLVAQSGVLITQVRSVKQMGSRHFVLVDAGFNDLMRPAMYGSYHHISALAADGRSLEHAPTVETVVAGPLCESGDVFTQQEGGNVETRALPEVKAGDYLVLHDTGAYGASMSSNYNSRPLLPEVLFDNGQARLIRRRQTIEELLALELL
B3: KgdMs: Enzyme candidate for BDO biosynthetic pathway step A5, SEQ ID NO. 69 (protein, listed as Mycobacterium smegmatis)
chain: MSSSPSPFGQNEWLVEEMYRKFRDDPSSVDPSWHEFLVDYSPEPTTDSASNGRTTTAAPVTPPTPAPAPAPEPKAAPKPAAKTEAKPAKPAKSATPAKGDESQILRGAAAAVVKNMNASLEVPTATSVRAIPAKLMIDNRVVINNHLKRTRGGKISFTHLLGYAIVQAVKKFPNMNRHFAVVDGKPTAITPAHTNLGLAIDLQGKDGNRSLVVAAIKRCETMRFGQFIAAYEDIVRRARDGKLTAEDFSGVTISLTNPGTLGTVHSVPRLMQGQGAIIGAGAMEYPAEFQGASEERIADLGIGKLITLTSTYDHRIIQGAESGDFLRTIHQLLLDDDFFDEIFRELGIPYEPVRWRTDNPDSIEDKNARVIELIAAYRNRGHLMADIDPLRLDNTRFRSHPDLDVNSHGLTLWDLDREFKVDGFAGVQRKKLRDILSVLRDAYCRHVGVEYTHILEPEQQRWIQERVETKHDKPTVAEQKYILSKLNAAEAFETFLQTKYVGQKRFSLEGAETVIPMMDAVIDQCAEHGLDEVVIAMPHRGRLNVLANIVGKPYSQIFSEFEGNLNPSQAHGSGDVKYHLGATGTYIQMFGDNDIEVSLTANPSHLEAVDPVLEGLVRAKQDLLDTGEEGSDNRFSVVPLMLHGDAAFAGQGVVAETLNLALLRGYRTGGTIHIVVNNQIGFTTAPTDSRSSEYCTDVAKMIGAPIFHVNGDDPEACAWVARLAVDFRQAFKKDVVIDMLCYRRRGHNEGDDPSMTQPYMYDVIDTKRGSRKAYTEALIGRGDISMKEAEDALRDYQGQLERVFNEVRELEKHEIEPSESVEADQQIPSKLATAVDKAMLQRIGDAHLALPEGFTVHPRVRPVLEKRREMAYEGRIDWAFAELLALGSLIAEGKLVRLSGQDTQRGTFTQRHAVIVDRKTGEEFTPLQLLATNPDGTPTGGKFLVYNSALSEFAAVGFEYGYSVGNPDAMVLWEAQFGDFVNGAQSIIDEFISSGEAKWGQLSDVVLLLPHGHEGQGPDHTSGRIERFLQLWAEGSMTIAMPSTPANYFHLLRRHGKDGIQRPLIVFTPKSMLRNKAAVSDIRDFTESKFRSVLEEPMYTDGEGDRNKVTRLLLTSGKIYYELAARKAKENREDVAIVRIEQLAPLPRRRLAETLDRYPNVKEKFWVQEEPANQGAWPSFGLTLPEILPDHFTGLKRISRRAMSAPSSGSSKVHAVEQQEILDTAFG
B4: YiaQEc: Enzyme candidate for BDO biosynthetic pathway step A5, SEQ ID NO. 67 (protein, listed as Escherichia coli)
chain: MSRPLLQLALDHSSLEAAQRDVTLLKDSVDIVEAGTILCLNEGLGAVKALREQCPDKIIVADWKVADAGETLAQQAFGAGANWMTIICAAPLATVEKGHAMAQRCGGEIQIELFGNWTLDDARDWHRIGVRQAIYHRGRDAQASGQQWGEADLARMKALSDIGLELSITGGITPADLPLFKDIRVKAFIAGRALAGAANPAQVAGDFHAQIDAIWGGARA
B5: UlaDEc: Enzyme candidate for BDO biosynthetic pathway step A5, SEQ ID NO. 68 (protein, listed as Escherichia coli)
chain: MSLPMLQVALDNQTMDSAYETTRLIAEEVDIIEVGTILCVGEGVRAVRDLKALYPHKIVLADAKIADAGKILSRMCFEANADWVTVICCADINTAKGALDVAKEFNGDVQIELTGYWTWEQAQQWRDAGIGQVVYHRSRDAQAAGVAWGEADITAIKRLSDMGFKVTVTGGLALEDLPLFKGIPIHVFIAGRSIRDAASPVEAARQFKRSIAELWG
B6: HomAu: Enzyme candidate for BDO biosynthetic pathway step A3, SEQ ID NO. 24 (protein, listed as Arthrobacter aurescens)
chain: MSEMRTLKVALLGCGNVGAQVARILIDDAEALAARSGARLELSGIAVRNVDSPRDVELPRELFTTDADTLVKDADLVIELMGGIEPARSLILTAIQNGACVVTGNKALLAQDGPTLYEEADKAGVQLSYEAAVAGAIPILRPIRDSLSGDRITRVLGIVNGTTNFILDQMDSTGAQFADALAEAQRLGYAEADPTADVEGHDAAAKAAILASLSFHTRFSLDDVYCEGITKVSAADIASAKEAGFVIKLLAIAEKIDSSDNGSGISVRVHPTLLPREHPLAAVRGAFNAVFIEAENAGELMFYGQGAGGTPTASAVLGDLVSAARRLVLGGPGRTETTTGHVPALAIDASNTSYYIGLDVADQAGVLARIAHIFAENGVSIEIMRQTIHRDSASNVESAELKIVTHRASEAALAATVEAVKGLDVINSVTSVLRVEGV
B7: HomCg: Enzyme candidate for BDO biosynthetic pathway step A3, SEQ ID NO. 22 (protein, listed as Corynebacterium glutamicum)
chain: MTSASAPSFNPGKGPGSAVGIALLGFGTVGTEVMRLMTEYGDELAHRIGGPLEVRGIAVSDISKPREGVAPELLTEDAFALIEREDVDIVVEVIGGIEYPREVVLAALKAGKSVVTANKALVAAHSAELADAAEAANVDLYFEAAVAGAIPVVGPLRRSLAGDQIQSVMGIVNGTTNFILDAMDSTGADYADSLAEATRLGYAEADPTADVEGHDAASKAAILASIAFHTRVTADDVYCEGISNISAADIEAAQQAGHTIKLLAICEKFTNKEGKSAISARVHPTLLPVSHPLASVNKSFNAIFVEAEAAGRLMFYGNGAGGAPTASAVLGDVVGAARNKVHGGRAPGESTYANLPIADFGETTTRYHLDMDVEDRVGVLAELASLFSEQGISLRTIRQEERDDDARLIVVTHSALESDLSRTVELLKAKPVVKAINSVIRLERD

In one experiment the test system is 5-hydroxy-2-oxopentanoate. In words: Enzyme assay, decarboxylase (step A5), aldehyde dehydrogenase linked reaction. It counts as biochemical. Also on record: key: +: measureable activity detected in the assay; −: no measurable activity detected in the assay. The following applies: BDO biosynthetic pathway step A5. As to the method: (§1) Enzyme expression and crude lysate preparation. The enzymatic activity of each candidate enzyme is evaluated, first in E. coli and subsequently in C. glutamicum. It will be apparent to one of skill in the art that the expression and lysate preparations may need to be modified depending on the host cell and recombinant gene of interest.
(§2) E. coli: E. coli strains transformed with expression clones, for example, pUC18 or MB4124 based clones having a medium strong constitutive promoter regulating the recombinant gene of interest, are grown aerobically in LB medium (Difco) containing the appropriate antibiotic(s). At an OD600 of 0.5, IPTG is added to a final concentration of 0.25 mM. The cultures are grown to a final OD600 of 1.5 at which time the cells are collected and harvested by centrifugation. Cell pellets are resuspended in BugBuster (Novagen) reagent containing benzonase and lysozyme. Alternatively, E. coli strains transformed with expression clones, are grown overnight aerobically at 37° C. in BHI containing the appropriate antibiotic(s). 300 μL of fresh overnight culture is used to inoculate 2.7 mL BHI containing 0.25 mM IPTG and the appropriate antibiotic. The cultures are grown aerobically for 4-5 hours at 37° C. at which time the cells are collected and harvested by centrifugation. Cell pellets are frozen at −80° C. for at least 15 minutes, then thawed and resuspended in BugBuster (Novagen) reagent. Lysis and lysate collection are performed according to the manufacturer's instructions and, for example, may involve use of a sonicator and/or French press. Cleared lysates are stored on ice until enzyme assays are performed.
(§3) C. glutamicum: C. glutamicum strains transformed with MB4124 expression clones containing the recombinant gene of interest are grown aerobically in BHI broth supplemented with the proper antibiotic(s). At an OD600 of 0.5, IPTG is added to a final concentration of 0.25 mM. The cultures are grown to a final OD600 of 1.5 at which time the cells are collected and harvested by centrifugation. The pellet is washed once in one volume of water and resuspended in lysis buffer (1.0 ml 1.0 M HEPES buffer, pH 7.5, 0.5 ml 1M KOH, 10 μl 0.5M EDTA, protease inhibitor cocktail, water to 5 ml; the final pH will vary depending on the individual enzyme being tested) and one volume of 0.1 mm acid washed glass beads. The mixture is repeatedly alternately vortexed and held on ice for 15 seconds, eight times. After centrifugation for 5 min at 4,000 rpm, the supernatant lysate is removed and respun for 20 min at 10,000 rpm. Alternatively, C. glutamicum strains transformed with MB4124 expression clones containing the recombinant gene of interest are grown aerobically overnight in BHI broth supplemented with the proper antibiotic(s). Five mL of fresh overnight culture is used to inoculate 200 mL BHI containing 0.25 mM IPTG and the appropriate antibiotic. The cultures are grown aerobically at 30° C. for 5-7 hours at which time the cells are collected and harvested by centrifugation at 4° C. The pellet is resuspended in 15 mL ice cold 39 mM KH2PO4, 61 mM K2HPO4, 0.5 M KCl and lysed using a BioSpec BeadBeater and following the manufacturer's instructions. The lysate is centrifuged at 16,000 RPM at 4° C. for 30 minutes and the supernatant retained on ice as the extract.
Protein Assays. Protein concentrations in lysates are determined according to the methods of Bradford et al. (Anal. Biochem. 72:248-254 [1976]) or by the method of Smith et al. (Anal. Biochem. 150(1):76-85 [1985]) and lysates are assayed according to the methods below.
Enzyme Assays. Enzyme assays are performed on the cell lysates prepared above. The activity for each recombinant enzyme is compared to a lysate from a vector only control culture which is generated in a fashion identical to the recombinant enzyme lysate. […]
B1: the “Enzyme Assay” value is “−”.

As for B2, the “Enzyme Assay” value is “−”.

Consider B3, for which the “Enzyme Assay” value is on record as “−”.

For the molecule B4, the “Enzyme Assay” value is “−”.

As for B5, the “Enzyme Assay” value is listed as “−”.

The next experiment relates to L-glutamate 5-semialdehyde (GSA). Nature of the experiment: Enzyme assay, oxidoreductase (step A3), cell lysates. It counts as biochemical. Also on record: key: +: measureable activity detected in the assay; −: no measurable activity detected in the assay. Conditions: BDO biosynthetic pathway step A3. Here is the method: as §1, §2
as §3, with “The lysate is centrifuged at 16,000 RPM at 4° C. for 30 minutes and the supernatant retained on ice as the extract.” left out
Protein Assays. Protein concentrations in lysates are determined according to the methods of Bradford et al. (Anal. Biochem. 72:248-254 [1976]) or by the method of Smith et al. (Anal. Biochem. 150(1):76-85 [1985]) and lysates are assayed according to the methods below. […]
Consider B6, for which the “Enzyme Assay” value is listed as “−”.

Regarding B7, the “Enzyme Assay” value is “−”.
